Laboratory results as given in patent US9340596B2, “Fusion protein comprising tumor necrosis factor related apoptosis inducing ligand and integrin ligand and use thereof” (NANJING UNIVERSITY, priority 2007, dated 2016).

Legend:
[1] = tested on: human foreskin microvascular endothelial cells; assay: Cell adhesion assay of human foreskin microvascular endothelial cells on protein-coated wells; assay type: cell-based; settings: free protein added to plates coated with TRAIL variant protein
Procedure: The TRAIL and its variant protein are coated on a 96-well PVC plate overnight at 4° C. The coated 96-well plate was rinsed with 0.9% physiological saline, and then blocked for 1 h at 1640 culture medium containing 2% bovine serum albumin, and then rinsed again. After the human foreskin microvascular endothelial cells were digested, washed three times with phosphate buffer and re-suspended into the complete RPMI1640 medium, it was then added to the 96-well plate coated with TRAIL and its variant (40,000 cell per well). After the cells were incubated for 1.5 hours in an incubator containing 5% carbon dioxide, they were washed three times with physiological saline to remove the non-adherent cells. The adherent cells were fixed for 30 min with phosphate buffer solution (pH 7.3) containing 4% formalin and 2% sucrose, and then stained with 0.5% crystal violet. The fixed stained cells were rinsed several times, then dissolved with […] DMSO to test the absorbance values at 540 nm. All the tests should be carried out at least three times independently.

[2] = tested on: COLO-205 colon cancer cells; assay: Cell apoptosis, Annexin V and PI double staining, COLO-205; assay type: cell-based; settings: COLO-205 cells pre-incubated with RGD-L-TRAIL (C230G), then induced with RGD-L-TRAIL
Procedure: After the cells treated with TRAIL and its variant were digested with trypsin, they were removed from the cultivation plate, washed twice with phosphate buffer solution, and centrifuged for 5 min at 300 g centrifugal force. The supernatants were removed, and the cells were re-suspended in 100 ul of binding buffer solution. Then, Annexin V-FITC (BD Pharmgen) was added until a final concentration of 2 μg/ml was achieved, followed by incubation at room temperature. After 10 min, 400 ul of binding buffer was added, and the cells were transferred to a flow analysis tube. 1 μg of […] (Sigma Corporation) was added to each tube. The cells were analyzed with a flow cytometer within 30 min. At least three separate tests should be carried out for each cell line.

B1: RGD-L-TRAIL (C230G): TRAIL variant fused with αVβ3 and αVβ5 integrin ligands with a mutation at TRAIL's activity center causing loss of biological activity (protein)
chain: ACDCRGDCFCGGGGGVRERGPQRVAAHITGTRGRSNTLSSPNSKNEKALGRKINSWESSRSGHSFLSNLHLRNGELVIHEKGFYYIYSQTYFRFQEEIKENTKNDKQMVQYIYKYTSYPDPILLMKSARNSGWSKDAEYGLYSIYQGGIFELKENDRIFVSVTNEHLIDMDHEASFFGAFLVG
- reduction by free protein of endothelial cells adhered to microplates coated with RGD-L-TRAIL (competitive test) [1]: significantly reduce
- effect of pre-incubation with the competitive inhibitor on RGD-L-TRAIL-induced apoptosis activity [2]: declined significantly
